Source: US20150093336A1 (VIB VZW, published 2015)

T1: Mouse macrophage mannose receptor (MMR) expressed on tumor-associated macrophages of 3LL-R tumors (mouse, UniProt Q61830 20-1456)
T1 construct: Endogenous receptor on ex vivo isolated CD11b+ Ly6G- TAMs (flow cytometry) and in mouse organs (biodistribution); also called mouse MMR; mMMR
T1 sequence: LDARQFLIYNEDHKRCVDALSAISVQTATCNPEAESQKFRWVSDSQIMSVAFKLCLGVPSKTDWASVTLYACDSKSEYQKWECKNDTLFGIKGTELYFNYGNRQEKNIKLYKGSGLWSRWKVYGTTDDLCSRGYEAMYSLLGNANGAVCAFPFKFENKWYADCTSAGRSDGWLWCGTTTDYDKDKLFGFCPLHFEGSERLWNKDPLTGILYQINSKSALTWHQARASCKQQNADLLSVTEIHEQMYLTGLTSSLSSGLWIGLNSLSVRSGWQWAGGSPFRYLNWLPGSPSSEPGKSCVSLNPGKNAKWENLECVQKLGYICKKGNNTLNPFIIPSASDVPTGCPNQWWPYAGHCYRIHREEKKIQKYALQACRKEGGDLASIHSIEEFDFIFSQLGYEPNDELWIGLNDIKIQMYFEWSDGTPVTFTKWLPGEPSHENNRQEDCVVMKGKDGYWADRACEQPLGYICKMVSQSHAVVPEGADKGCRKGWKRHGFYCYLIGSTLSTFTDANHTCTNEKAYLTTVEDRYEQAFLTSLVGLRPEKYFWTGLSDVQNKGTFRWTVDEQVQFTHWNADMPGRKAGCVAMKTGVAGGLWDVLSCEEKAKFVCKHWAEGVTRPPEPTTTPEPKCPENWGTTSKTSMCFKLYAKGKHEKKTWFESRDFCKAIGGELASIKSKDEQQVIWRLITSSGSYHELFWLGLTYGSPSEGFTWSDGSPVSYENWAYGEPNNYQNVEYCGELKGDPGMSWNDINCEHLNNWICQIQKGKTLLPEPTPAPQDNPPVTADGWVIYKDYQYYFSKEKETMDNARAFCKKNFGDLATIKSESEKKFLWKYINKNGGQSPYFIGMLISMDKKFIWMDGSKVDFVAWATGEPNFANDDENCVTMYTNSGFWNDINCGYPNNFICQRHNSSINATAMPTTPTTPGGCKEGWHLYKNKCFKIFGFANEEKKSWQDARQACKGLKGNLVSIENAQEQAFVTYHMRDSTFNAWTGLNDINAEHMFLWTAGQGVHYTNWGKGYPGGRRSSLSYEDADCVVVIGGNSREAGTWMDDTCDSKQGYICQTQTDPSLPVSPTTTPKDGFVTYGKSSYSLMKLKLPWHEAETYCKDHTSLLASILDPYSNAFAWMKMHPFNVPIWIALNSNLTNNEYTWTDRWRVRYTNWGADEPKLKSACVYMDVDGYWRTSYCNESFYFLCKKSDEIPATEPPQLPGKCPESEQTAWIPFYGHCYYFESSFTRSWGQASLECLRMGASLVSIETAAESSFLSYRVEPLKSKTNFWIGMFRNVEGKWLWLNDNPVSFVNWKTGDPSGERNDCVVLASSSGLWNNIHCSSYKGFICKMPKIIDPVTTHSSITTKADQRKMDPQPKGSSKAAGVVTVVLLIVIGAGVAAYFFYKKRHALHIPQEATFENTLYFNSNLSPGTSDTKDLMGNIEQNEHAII

T2: Recombinant human MMR (R&D systems) (human, UniProt P22897 19-1383)
T2 construct: Antigen of the PE-ELISA and the SPR; also called hMMR; recombinant hMMR
T2 sequence: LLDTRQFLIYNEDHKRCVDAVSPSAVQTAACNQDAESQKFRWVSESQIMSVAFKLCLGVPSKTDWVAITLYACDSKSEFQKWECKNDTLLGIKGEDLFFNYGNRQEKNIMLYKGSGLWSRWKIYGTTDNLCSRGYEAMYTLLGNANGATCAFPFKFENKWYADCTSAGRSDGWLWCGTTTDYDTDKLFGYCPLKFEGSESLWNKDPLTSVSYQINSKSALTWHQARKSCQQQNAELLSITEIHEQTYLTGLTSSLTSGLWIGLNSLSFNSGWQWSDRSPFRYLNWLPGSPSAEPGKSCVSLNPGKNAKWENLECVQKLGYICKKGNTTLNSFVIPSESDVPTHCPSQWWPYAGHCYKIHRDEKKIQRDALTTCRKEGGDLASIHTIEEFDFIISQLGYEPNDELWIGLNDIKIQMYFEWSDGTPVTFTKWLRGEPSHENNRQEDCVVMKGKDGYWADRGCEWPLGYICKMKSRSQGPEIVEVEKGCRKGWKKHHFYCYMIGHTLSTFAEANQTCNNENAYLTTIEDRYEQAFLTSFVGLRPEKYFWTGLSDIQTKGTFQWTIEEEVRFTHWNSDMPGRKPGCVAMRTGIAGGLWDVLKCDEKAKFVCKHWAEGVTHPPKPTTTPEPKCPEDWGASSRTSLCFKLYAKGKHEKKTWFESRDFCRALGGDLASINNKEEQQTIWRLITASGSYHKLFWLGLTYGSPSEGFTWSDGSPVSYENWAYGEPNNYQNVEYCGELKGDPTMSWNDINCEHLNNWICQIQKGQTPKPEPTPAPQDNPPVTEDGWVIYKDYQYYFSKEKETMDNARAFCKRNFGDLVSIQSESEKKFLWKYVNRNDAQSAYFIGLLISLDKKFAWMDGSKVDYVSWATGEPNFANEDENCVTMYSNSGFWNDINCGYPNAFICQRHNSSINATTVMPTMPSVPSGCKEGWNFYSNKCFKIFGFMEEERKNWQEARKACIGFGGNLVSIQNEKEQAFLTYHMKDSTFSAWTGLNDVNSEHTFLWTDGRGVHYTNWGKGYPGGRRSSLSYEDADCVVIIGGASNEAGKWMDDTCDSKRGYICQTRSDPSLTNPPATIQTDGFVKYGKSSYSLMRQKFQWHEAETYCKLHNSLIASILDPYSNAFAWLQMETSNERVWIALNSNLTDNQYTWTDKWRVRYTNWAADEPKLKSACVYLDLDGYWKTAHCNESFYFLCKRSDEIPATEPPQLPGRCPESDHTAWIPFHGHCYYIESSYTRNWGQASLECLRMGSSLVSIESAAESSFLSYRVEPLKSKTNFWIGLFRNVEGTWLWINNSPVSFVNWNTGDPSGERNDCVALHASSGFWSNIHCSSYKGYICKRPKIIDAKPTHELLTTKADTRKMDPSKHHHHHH


Tests used:
[1] = target: T1, Mouse macrophage mannose receptor (MMR) …; experiment: flow cytometry on CD11b+ Ly6G- TAMs of 3LL-R tumors gated on MHCII, HA-tagged Nb detected with Alexa Fluor 488 anti-HA
Description: FIG. 6: MMR-specific Nbs bind to mouse MMR expressed on ex vivo isolated macrophages. 3LL-R tumors were induced by injecting 3×10⁶ cancer cells subcutaneously in C57Bl/6 mice. After 15 days of tumor growth, the tumors were isolated and single cell suspensions were prepared to be analyzed by flow cytometry. The CD11b+Ly6G tumor-associated macrophages (TAM) were further gated on MHCII expression. The histograms depict MMR expression as defined by Nb binding on MHCII^low and MHCII^high TAMs. Shaded histograms depict binding of the negative control Nb BCII10.
For examining specific binding of the anti-MMR sdAbs to mouse MMR, 3LL-R tumors were induced by injecting 3 E6 cancer cells subcutaneously in C57Bl/6 mice. After 15 days of tumor growth, the tumors were isolated, chopped and incubated for 25 minutes (37° C.) with 10 U/ml Collagenase type I, 400 U/ml Collagenase type IV, and 30 U/ml DNAseI (Worthington). Density gradients (Axis-Shield) were used to remove tissue debris and dead cells. sdAbs were added at 10 μg/ml to 1 E6 cells per tube. […] Binding profiles of anti-MMR sdAbs were recorded.

[2] = target: T2, Recombinant human MMR (R&D systems); experiment: PE-ELISA, periplasmic extract on coated human MMR, anti-HA detection

Row | Binder | binding result [1] | binding result [2]
1 | anti-mouse MMR sdAb clone 1 (VHH, also called anti-mMMR Nb clone 1; anti-mouse MMR clone 1) VHH: QVQLQESGGGLVQPGGSLRLSCAASGNIFSINAIGWYRQAPGKQRELVATITLSGSTNYADSVKGRFSISRDNAKNTVYLQMNSLKPEDTAVYYCNANTYSDSDVYGYWGQGTQVTVSS | binds | –
2 | NbhMMRm4.83 (VHH, Only tested as periplasmic extract in PE-ELISA; clone carries C-terminal HA and 6xHis tag) VHH: QVQLQESGGGLVQPGGSLRLSCAASGPGFKLDYYAIAWFRQAPGKEREGVSCIGGSGSGLTTYVENSVKDRFTISRDNAQNTVYLHMNSLKPEDTGIYYCAADTYYYCSKRVWRNDYGSWGQGTQVTVSS | – | binds
